In patent US20240400675A1 (published 2024):
Residue numbers refer to the chain shown, from its start. Names and notes keep the numbering of the source. Each block holds one binder with its values, some of them ahead of it.

Assays:
[1] = molecular target: T1, human CLDN6 (human, UniProt P56747 1-220); assay: flow cytometry on HEK293-Trex cells stably expressing the claudin
T1 construct: also called Claudin 6
T1 sequence: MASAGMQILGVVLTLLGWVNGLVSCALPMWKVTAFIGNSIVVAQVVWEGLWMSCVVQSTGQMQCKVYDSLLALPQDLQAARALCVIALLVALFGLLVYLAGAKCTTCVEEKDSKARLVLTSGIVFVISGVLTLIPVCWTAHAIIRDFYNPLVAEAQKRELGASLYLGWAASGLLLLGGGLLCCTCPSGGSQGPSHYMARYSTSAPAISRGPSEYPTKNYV

[2] = molecular target: T1, human CLDN6; assay: flow cytometry on transfected cells
[3] = molecular target: T2, human CLDN9 (human, UniProt O95484 1-217); assay: flow cytometry on transfected HEK293E cells
T2 construct: also called CLND9
T2 sequence: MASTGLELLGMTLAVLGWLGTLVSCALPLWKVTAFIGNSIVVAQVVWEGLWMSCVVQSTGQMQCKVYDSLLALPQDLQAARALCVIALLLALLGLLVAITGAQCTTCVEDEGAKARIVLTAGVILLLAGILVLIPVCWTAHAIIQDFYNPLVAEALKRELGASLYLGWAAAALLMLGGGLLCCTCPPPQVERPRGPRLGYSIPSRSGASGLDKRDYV
Protocol: (§1) The following experiments used to screen CLDN6 binding domains were generally performed as follows. HEK293T or HEK293E cells were respectively stably or transiently transfected to express CLDN6, CLND9, or other targets of interest. 48 hours post transfection, cells were harvested and incubated with dilutions of the indicated test articles for 1 hour at 4° C. […] Binding was then assessed via flow cytometry.

[4] = molecular target: T1, human CLDN6; assay: flow cytometry on HEK293E cells expressing CLDN6
Protocol: as §1

[5] = molecular target: T1, human CLDN6; assay: flow cytometry on HEK293E cells expressing CLDN6 or CLDN9; EC50 on CLDN9 cells divided by EC50 on CLDN6 cells
Protocol: as §1

B1: XENP34221, humanized C6-30 H2L2 bivalent mAb (antibody, human IgG1, kappa, V domains shown)
VH: EVQLVQSGAEVKKPGESLRISCKTSGYTFTEYTMHWVRQMPGKSLEWMGGIDPNNGNTHYNQKFQGHVTISVDKSISTAYLQWSSLKASDTAMYYCARIYYFGRLYFDFWGAGTLVTVSS
VL: DIQMTQSPDSLAVSLGERATINCKASEDIYNRLAWYQQKPGQVPKLLISGATSLETGVPSRFSGSGSGKDYTLTISSLQAEDVAVYYCQQYWSSPLTFGGGTKVEIKR
notes: IgG1 with ablation variant; copies: 2 + 2
binding result [1]: binds

B4: XENP35101 having H2.8_L1 (antibody, human IgG1, kappa, V domains shown)
VH: B1 VH with G56D
VL: DIQMTQSPSSLSASVGDRVTITCQASEDIYNRLAWYQQKPGKVPKLLISGATSLETGVPSRFSGSGSGKDYTFTISSLQPEDIATYYCQQYWSSPLTFGGGTKVEIKR
notes: Bivalent mAb; also called C6-30 H2.8_L1; copies: 2 + 2
binding result [3]: binds

B7: XENP37227 (C6-30_H1.9_L1.187), 2+1 Fab2-scFv-Fc bsAb with CD3 High-Int #1 (bispecific antibody)
heavy 1: QVQLVQSGAEVKKPGASVKVSCKTSGYTFTEYTMHWVRQAPGQSLEWMGGIDPNNANTHYNQKFQGRVTITVDKSASTAYMELSSLRSEDTAVYYCARIYYFGRLYFDFWGAGTLVTVSSASTKGPSVFPLAPSSKSTSGGTAALGCLVKDYFPEPVTVSWNSGALTSGVHTFPAVLQSSGLYSLSSVVTVPSSSLGTQTYICNVNHKPSDTKVDKKVEPKSCDKTHTCPPCPAPPVAGPSVFLFPPKPKDTLMISRTPEVTCVVVDVKHEDPEVKFNWYVDGVEVHNAKTKPREEEYNSTYRVVSVLTVLHQDWLNGKEYKCKVSNKALPAPIEKTISKAKGQPREPQVYTLPPSREEMTKNQVSLTCDVSGFYPSDIAVEWESDGQPENNYKTTPPVLDSDGSFFLYSKLTVDKSRWEQGDVFSCSVMHEALHNHYTQKSLSLSPGK
heavy 2: QVQLVQSGAEVKKPGASVKVSCKTSGYTFTEYTMHWVRQAPGQSLEWMGGIDPNNANTHYNQKFQGRVTITVDKSASTAYMELSSLRSEDTAVYYCARIYYFGRLYFDFWGAGTLVTVSSASTKGPSVFPLAPSSKSTSGGTAALGCLVKDYFPEPVTVSWNSGALTSGVHTFPAVLQSSGLYSLSSVVTVPSSSLGTQTYICNVNHKPSNTKVDKKVEPKSCGGGGSGGGGSQAVVTQEPSLTVSPGGTVTLTCGSSTGAVTTSNYANWVQQKPGKSPRGLIGGTNKRAPGVPARFSGSLLGGKAALTISGAQPEDEADYYCALWYSNHWVFGGGTKLTVLGKPGSGKPGSGKPGSGKPGSEVQLVESGGGLVQPGGSLRLSCAASGFTFSTYAMNWVRQAPGKGLEWVGRIRSKANNYATYYADSVKGRFTISRDDSKNTLYLQMNSLRAEDTAVYYCVRHGNFGDSYVSWFAYWGQGTLVTVSSGGGGSGGGGSKTHTCPPCPAPPVAGPSVFLFPPKPKDTLMISRTPEVTCVVVDVKHEDPEVKFNWYVDGVEVHNAKTKPREEQYNSTYRVVSVLTVLHQDWLNGKEYKCKVSNKALPAPIEKTISKAKGQPREPQVYTLPPSREQMTKNQVKLTCLVKGFYPSDIAVEWESNGQPENNYKTTPPVLDSDGSFFLYSKLTVDKSRWQQGNVFSCSVMHEALHNHYTQKSLSLSPGK
light: not shown
notes: copies: 1 + 1 + 2
binding result [4]: binds

B9: XENP34218, humanized C6-30 H1L1 bivalent mAb (antibody, human IgG1, kappa, V domains shown)
VH: QVQLVQSGAEVKKPGASVKVSCKTSGYTFTEYTMHWVRQAPGQSLEWMGGIDPNNGNTHYNQKFQGRVTITVDKSASTAYMELSSLRSEDTAVYYCARIYYFGRLYFDFWGAGTLVTVSS
VL: B4 VL
notes: IgG1 backbone with E233P/L234V/L235A/G236del/S267K ablation variant; also called XENP34218_HIL1
CLDN9/CLDN6 EC50 ratio [5]: 23

B11: XENP36972 having H1_L1.187 (antibody, human IgG1, kappa, V domains shown)
VH: B9 VH
VL: B4 VL with S94A
notes: Bivalent mAb; also called C6-30 H1_L1.187; copies: 2 + 2
CLDN9/CLDN6 EC50 ratio [5]: 52.6

Next, values leading:

binding result [2]: binds
B2: XENP34220, humanized C6-30 H2L1 bivalent mAb (antibody, human IgG1, kappa, V domains shown)
VH: B1 VH
VL: B4 VL
notes: IgG1 backbone with ablation variant; copies: 2 + 2

binding result [2]: binds
B3: XENP34219, humanized C6-30 H1L2 bivalent mAb (antibody, human IgG1, kappa, V domains shown)
VH: B9 VH
VL: B1 VL
notes: as for B1

binding result [3]: binds
B5: XENP35102 having H2.9_L1 (antibody, human IgG1, kappa, V domains shown)
VH: B1 VH with G56A
VL: B4 VL
notes: Bivalent mAb; also called C6-30 H2.9_L1; copies: 2 + 2

binding result [4]: binds
B6: XENP37233 (C6-30_H2.91_L1.187), 2+1 Fab2-scFv-Fc bsAb with CD3 High-Int #1 (bispecific antibody)
heavy 1: EVQLVQSGAEVKKPGESLRISCKTSGYTFTEYTMHWVRQMPGKSLEWMGGIDPNNFNTHYNQKFQGHVTISVDKSISTAYLQWSSLKASDTAMYYCARIYYFGRLYFDFWGAGTLVTVSSASTKGPSVFPLAPSSKSTSGGTAALGCLVKDYFPEPVTVSWNSGALTSGVHTFPAVLQSSGLYSLSSVVTVPSSSLGTQTYICNVNHKPSDTKVDKKVEPKSCDKTHTCPPCPAPPVAGPSVFLFPPKPKDTLMISRTPEVTCVVVDVKHEDPEVKFNWYVDGVEVHNAKTKPREEEYNSTYRVVSVLTVLHQDWLNGKEYKCKVSNKALPAPIEKTISKAKGQPREPQVYTLPPSREEMTKNQVSLTCDVSGFYPSDIAVEWESDGQPENNYKTTPPVLDSDGSFFLYSKLTVDKSRWEQGDVFSCSVMHEALHNHYTQKSLSLSPGK
heavy 2: EVQLVQSGAEVKKPGESLRISCKTSGYTFTEYTMHWVRQMPGKSLEWMGGIDPNNFNTHYNQKFQGHVTISVDKSISTAYLQWSSLKASDTAMYYCARIYYFGRLYFDFWGAGTLVTVSSASTKGPSVFPLAPSSKSTSGGTAALGCLVKDYFPEPVTVSWNSGALTSGVHTFPAVLQSSGLYSLSSVVTVPSSSLGTQTYICNVNHKPSNTKVDKKVEPKSCGGGGSGGGGSQAVVTQEPSLTVSPGGTVTLTCGSSTGAVTTSNYANWVQQKPGKSPRGLIGGTNKRAPGVPARFSGSLLGGKAALTISGAQPEDEADYYCALWYSNHWVFGGGTKLTVLGKPGSGKPGSGKPGSGKPGSEVQLVESGGGLVQPGGSLRLSCAASGFTFSTYAMNWVRQAPGKGLEWVGRIRSKANNYATYYADSVKGRFTISRDDSKNTLYLQMNSLRAEDTAVYYCVRHGNFGDSYVSWFAYWGQGTLVTVSSGGGGSGGGGSKTHTCPPCPAPPVAGPSVFLFPPKPKDTLMISRTPEVTCVVVDVKHEDPEVKFNWYVDGVEVHNAKTKPREEQYNSTYRVVSVLTVLHQDWLNGKEYKCKVSNKALPAPIEKTISKAKGQPREPQVYTLPPSREQMTKNQVKLTCLVKGFYPSDIAVEWESNGQPENNYKTTPPVLDSDGSFFLYSKLTVDKSRWQQGNVFSCSVMHEALHNHYTQKSLSLSPGK
light: not shown
notes: copies: 1 + 1 + 2

binding result [4]: binds
B8: XENP37231 (C6-30_H1.24_L1.187), 2+1 Fab2-scFv-Fc bsAb with CD3 High-Int #1 (bispecific antibody)
heavy 1: B7 heavy 1 with A56G, F102L
heavy 2: B7 heavy 2 with A56G, F102L
light: not shown
notes: copies: 1 + 1 + 2

binding result [2]: binds
B10: XENP35093 (having C6-30 H1.9_L1) (antibody, human IgG1, kappa, V domains shown)
VH: B9 VH with G56A
VL: B4 VL
notes: Bivalent mAb; also called G55A; copies: 2 + 2
